Laboratory results reported in the nanobody polyreactivity screen of Harvey et al. (2022).

Assay: yeast display, Sf9 membrane polyspecificity reagent, FACS + sequencing; frameworks hold sequencing errors
Procedure, shortened: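 Using colony PCR, genes from sorted yeast display clones were amplified, then sequenced on MiSeq at 2 × 250 and filtered by CDR length. The clones had been stained with 10% biotinylated, detergent-solubilized Sf9 membrane reagent for 1 hour at 4 °C and sorted by FACS into low and high (top ~1%) gates on anti-HA and streptavidin fluorescence. Polyreactivity labels come from the gate of origin.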

| Sequence | polyreactivity (PSR sort gate) |
| --- | --- |
| QVQLVESGGGLVQAGGSLRLSCAASGRIFIHNAMGWYRQAPGKERELVAAISSRGSRTSYADSVKGRFTISRDNAKNTVYLQMNSLKPEDTSVYYCNAAPIAKYDYWGQGTQVTVSS | high polyreactivity |
| QVQLVESGGGLVQAGGSVRLSCAASGSTFLHYAMGWYRQPPGKERELVAAITDSGGNTYYADSVKCRFTISRDNAKNTVYLQMNSLKPEDTAVYYCAAEYIFHYYDIFDYWGQGTQVTVSS | high polyreactivity |
| QVQLLESGGGIVQAGGSLRLSCDSSGSTFGTNAMGWYRQAPGKERELVAVITFSGGSTYYADSVKGRFTISRDNAKNTVYLQMNSLKPEDTAVYYCAKDGFITFVYDHDYWGQGTQVTVSS | low polyreactivity |
| QVQLVESGGGLVQAGGSLRLSCAASGLTFTYYAMGWYRQAPGKERELVAAITGGARTYYADSVKGRFTISRDNAKNTVYLQMNSLKPEDTAVYYCATQGAQKRYKYNYWGQGTQVTVSS | high polyreactivity |
| QVQHVESGGGLVQAGGILRLICPDSGFTIRHKAMGWYRQAPGKEREFVAAISWYDGSTYADSVKGRFTISRDNAKYTVYIQLNCLKPEDTAVYFCNADYPSYRYFTGRHYWGQGTQVTVSS | low polyreactivity |
| QVQQQESGGGMEQARGSLRLSCAASGYISWADYMGCYRQAPGKERELVAVIGYGSTTYYADSVKGRFTMSRDNAKNTAYLQMNSLKPEDTAVYYCAVGWYRDTAYKYWGQGTQVTVSS | low polyreactivity |
| QVQLVESGGGLVQAGCSLRLSCAACGSIFRAYAMGWYRQAPGKERELVADISRSGGSTYYADSVKGRFTISRDNAKNTVYLQMNSLKPEDTAFYYCAASYLGGQWRALGYDYWGQGTQVTVSS | low polyreactivity |
| QVQLVESGGGLVQAGGSLRLSCAASGFTFTKNAMGWYRQAPGKERELVAAISRGGRTYYADSVKGRFTISRDNAKNTVYLQMNSLKPEDTADYYCAKGYASQILVAPRSQYYYWGQGTQVTVSS | high polyreactivity |
| QVQLVESGGGLVQAGGSLRLSCAASGRIFQQNAMGWYRQAPGKERELVAAISSRGGSTYYADSVKGRFTISRDNAKNTVYLQMNSLKPEDTAVYYCARQYQSYRYRGYDYWGQGTQVTVSS | low polyreactivity |
| QVQLVESGGGLVQAGGSLRLSCAASGFILYYYAMGWYRQAPGKERELVAAISSGGNTDYADSVKGRFTISRDNAKNTVYLQMNSLKPEDTAVYYCAARGYHYSYLRGDTGYYYWGQGTQVTVSS | low polyreactivity |
| QVQLVESGGRLVQAGGSLRLSCAASGRIFRRYAMGWYRQAPGKERELVATINSGGTTNYADSVKGRFTISRDNAKNTVYLQMNSLKPEDTAVYYCNARSARYSGFDYWGQGTQVTVSS | high polyreactivity |
| QVQLVESGGGLVQAGGSLRLSCAASGSTFAYNAMGWYRQAPGKERELVAAISYGGDDTYYADSVKGRFTISRDNAKNTVYLQMNSLKPEDTAVYYCNARSRTYRSALGNLYHYDYWGQGTQVTVSS | high polyreactivity |
| QVQLVESGGGLVQAGGSLRLSCAASGSIFGFNAMGWYRQAPGKERELVAAISSGSTYYADSVKGRFTISRDNAKNTVYLQMNRLKPEDTAVYYCAATTGYSWYGYWGQGTQVTVSS | low polyreactivity |
| QVQLVESGGGLVQAGGSLRLSCAASGSIFTWYAMGWYRQAPGKERELVAAITRGGSTYADSVKGRFTISRDNAKNTVYLQMNSLKPEDTAVYYCNAVYGVYDFNYWGQGTQVTVSS | low polyreactivity |
| QVQLVESGGGLVQAGGSLRLSCAASGRIFWGNGMGWYRQAPGKEREFVAAISKSGGSTYYADSVKGRFTISRDNAKNTVYLQMNSLKPEDTAVYYCNARTSRYRRGGDSWGQGTQVTVSS | high polyreactivity |
| QVQLVESGGGLVQAGGSLRLSCAASGRIFRHYAMGWYRQAPWKERELVATITSGGRTNYADSVKGRFTISRDNAKNTVYLQMNSLKPEDTAVYYGAVDTWGSSWYDLFRETSDYWGQGTQVTVSS | low polyreactivity |

| Sequence | polyreactivity (PSR sort gate) |
| --- | --- |
| QVQLVESGGGLVQAGGSLRLSCAASGSIFPGYTMGWYRQAPGKERELVAAISRRGGSTYYADSVKGRITISRDNAKNSVYLQMNSLKPEDTAVYYCAKVPDYRFEYWGQGTQVTVSS | high polyreactivity |
| QVQLVESWRGLVQEGGSLRLSCAASGRTFYSYAMGWYIQAPGKERELVAAITRRGTSTYYADSVKGRFTISRDNAKNTVYLQMNSLKPEDTAVYYCAARLPGTFSYGYWGQGTQVTVSS | high polyreactivity |
| QFQLVESGGGLDQAGGSLRLSCAASGSIFSYYDMGGDRQAPGKDRELVAGNSRGGSTNYADSVKGRFTISRDNAKKTVYLQMNSLKPEDTAVYYCNADQSSRTYPFRLSRRSWLYGYWGQGTQVTVSS | low polyreactivity |
| QVQLVESGVGLVQAGGSLRLSCAASGRIFATNAMGWYRQAPGKERELVATITRSAGRTYYADSVKGRFTISRDNAKNTVYLQMNSLKPEDTAVYYCAASYWDTEPGYREYDYWGQGTQVTVSS | low polyreactivity |
| QVQLVESVGGLVQAGGRLRLSCAASGSIFWFNAMGWYRQAPGKEREFVASISRSGGTTYYADSVKGRFTISRDNAKNTVYLQMNSLKPEDTAVYYCNARAYGNGLGTGYFGNHRYDYWGQGTQVTVSS | low polyreactivity |
| QVQLVESGGGLVQAGGSLRLSCAASGSIFVYNAMGWYRQAPRKETEMVAAITSTGRTYYADSVKGRFTISRDNAKNTVYLKMNSLKPEDTGVYYCAATYVWSTLQYKTWQKLTHYGYWGQGTQVTVSS | high polyreactivity |
| QVQLVESGVGLVQAGGSLRLSCAASGSTFITYAMGWYRQAPGKERELVAAISTGGSTYYADSVKGRFTISRDNAKNTVYLQMNSLKPEDTAVYYCNAYSSSRGSTLQYSLQYDYWGQGTQVTVSS | low polyreactivity |
| QVQLVESGGGLVQAGGSLRLSCAASGRTFGWYAMGWYRQAPGKERELVAAITSGTSTYYADSVKGRFTISRDNAKNTVYLQMNSLKPEDTAVYYCAAQQGISNGTGVSATNPMDYWGQGTQVTVSS | low polyreactivity |
| QVQLVESGGGLVQAGGRLRLSCASSGITFWTYAMGWYRQAPGKERELVAAISKSGGSTYYADSVKGRYTISRDNAKNNVYFELNSLKPEDTAVYYCAAKGLRYRDIDYDYWGQGTQVTVSS | low polyreactivity |
| QVQLVESGGGLVQAGGSLRLSCAASGRIFRGYAMGWYRQAPGKERELVAAISRRGGSTSYADSVKGRFTISRDNAKNTVYLQMNSLKPEDTAVYYCAVDYSKNGDDYWGQGTQVTVSS | high polyreactivity |
| QVQLVESGGGLVQAGGSLRLSCSDSGFIYRMYAMGWYRQAHGKETELVSAISSDASTNYADSVKGRFTISRDNAKNTVYLQMNSLKPEDTAVYYCAAAVKRGYAQSFISDGYGYWGQGTQVTVSS | low polyreactivity |
| QVQLQESGGGLEQAGGSLRLSCAASGTNTVLYKMGWFRQAPGKEREFVASINFGTSTYYADSVKGRFTDSRDSAINTVFLHMNSLKPEDTSVYYCAAAYRWQDFYRYWGQGTQVTVSS | low polyreactivity |
| QVQLVESGGGLVQAGGSLRLTCAASGGIFSYNAMGWYRQAPGKERELVAAISDSSTRTYYADSVKGRFTISRDNAKNTVYLQIKSLKPEDTAVYYCAARHSRTRHTSDYWGQGTQVTVSS | high polyreactivity |
| QVQLLESGGGLVQAGGSLRLSCAASGRTFSGYAMGWYRQAPGKERELVAAISESGDGTYYADSVKGRFTISRDNAKNTVYLQMNSLKPEDTAVYYCAADGTLFSEYYWFFGYHDYWGQGTQVTVSS | high polyreactivity |
| QVQLVESGGGLVQGGGSLRLSCAASGITFCQYAMRWYRQAPGKERELVAGIRFSGSTTYYADSVKGRFTISRDYAKITVYLQMNSLKPEDTAVYDCNVDYYSGLYYYDSWGQGTQVTVSS | low polyreactivity |
